# Measurements published in PMC10675840, “Structure-function analysis of ceTIR-1/hSARM1 explains the lack of Wallerian axonal degeneration in C. elegans” (Cell reports, 2023).
# B1: CHIMERA (hSARM1 26-562 fused to ceTIR-1 709-872) (enzyme, human | C. elegans, UniProt Q6SZW1 26-562, looked up)
# chain: ERLAVPGPDGGGGTGPWWAAGGRGPREVSPGAGTEVQDALERALPELQQALSALKQAGGARAVGAGLAEVFQLVEEAWLLPAVGREVAQGLCDAIRLDGGLDLLLRLLQAPELETRVQAARLLEQILVAENRDRVARIGLGVILNLAKEREPVELARSVAGILEHMFKHSEETCQRLVAAGGLDAVLYWCRRTDPALLRHCALALGNCALHGGQAVQRRMVEKRAAEWLFPLAFSKEDELLRLHACLAVAVLATNKEVEREVERSGTLALVEPLVASLDPGRFARCLVDASDTSQGRGPDDLQRLVPLLDSNRLEAQCIGAFYLCAEAAIKSLQGKTKVFSDIGAIQSLKRLVSYSTNGTKSALAKRALRLLGEEVPRPILPSVPSWKEAEVQTWLQQIGFSKYCESFREQQVDGDLLLRLTEEELQTDLGMKSGITRKRFFRELTELKTFANYSTCDRSNLADWLGSLDPRFRQYTYGLVSCGLDRSLLHRVSEQQLLEDCGIHLGVHRARILTAAREMLHSPLPCTGGKPSGDTPDVFISYRRSTGNQLASLIKVLLQLRGYRVFIDVDKLYAGKFDSSLLKNIQAAKHFILVLTPNSLDRLLNDDNCEDWVHKELKCAFEHQKNIIPIFDTAFEFPTKEDQIPNDIRMITKYNGVKWVHDYQDACMAKVVRFITGELNRTTPTTKEMPSISRKTTQQR
# notes: human SARM1 ARM and SAM domains, residues 26-562 (26ERL...DTP562); ceTIR-1 TIR domain, residues 709-872 (709DVF...QQR872); Octamer by cryo-EM, sample supplemented with 5 mM NAD+; also called hARM-SAM-ceTIR CHIMERA; Chimera construct; source: HEK293F, transfected, purified (Ni-chelate, Superdex 200 Increase SEC)
# B2: ceTIR-1^TIR (residues 703-872) (domain or fragment, C. elegans, UniProt Q86DA5-2 703-872, looked up)
# chain: MLSKQIDVFISYRRSTGNQLASLIKVLLQLRGYRVFIDVDKLYAGKFDSSLLKNIQAAKHFILVLTPNSLDRLLNDDNCEDWVHKELKCAFEHQKNIIPIFDTAFEFPTKEDQIPNDIRMITKYNGVKWVHDYQDACMAKVVRFITGELNRTTPTTKEMPSISRKTTQQR
# notes: ceTIR-1 TIR domain, residues 703-872 (703MLS...QQR872); Dimeric by glutaraldehyde cross-linking; also called isolated TIR domain of ceTIR-1; source: E. coli T7 Express, purified (HisTrap, TEV, second HisTrap, Superdex SEC); not shown: His tag, N-terminal, cleaved
# B3: hSARM1 (near-intact, residues 26-724) (enzyme, human, UniProt Q6SZW1 26-724, looked up)
# chain: ERLAVPGPDGGGGTGPWWAAGGRGPREVSPGAGTEVQDALERALPELQQALSALKQAGGARAVGAGLAEVFQLVEEAWLLPAVGREVAQGLCDAIRLDGGLDLLLRLLQAPELETRVQAARLLEQILVAENRDRVARIGLGVILNLAKEREPVELARSVAGILEHMFKHSEETCQRLVAAGGLDAVLYWCRRTDPALLRHCALALGNCALHGGQAVQRRMVEKRAAEWLFPLAFSKEDELLRLHACLAVAVLATNKEVEREVERSGTLALVEPLVASLDPGRFARCLVDASDTSQGRGPDDLQRLVPLLDSNRLEAQCIGAFYLCAEAAIKSLQGKTKVFSDIGAIQSLKRLVSYSTNGTKSALAKRALRLLGEEVPRPILPSVPSWKEAEVQTWLQQIGFSKYCESFREQQVDGDLLLRLTEEELQTDLGMKSGITRKRFFRELTELKTFANYSTCDRSNLADWLGSLDPRFRQYTYGLVSCGLDRSLLHRVSEQQLLEDCGIHLGVHRARILTAAREMLHSPLPCTGGKPSGDTPDVFISYRRNSGSQLASLLKVHLQLHGFSVFIDVEKLEAGKFEDKLIQSVMGARNFVLVLSPGALDKCMQDHDCKDWVHKEIVTALSCGKNIVPIIDGFEWPEPQVLPEDMQAVLTFNGIKWSHEYQEATIEKIIRFLQGRSSRDSSAGSDTSLEGAAPMGPT
# notes: human SARM1 (sterile alpha and TIR motif containing 1), residues 26-724 (26ERL...GPT724); A TEV site follows the His tag; no cleavage is described; also called human SARM1; source: HEK293F, transfected, purified (Ni-chelate, Superdex 200 Increase SEC)
# B4: ceTIR-1 (Caenorhabditis elegans) (protein)
# chain: HMDELSPVDQRSTSGTARFLIQQDSVVNPSTKMSNTEQVAMMHTLKTKLSKYQAMMDKAFEEIAKVEDANIIEGCTIVRKLMRKVWNTPKVSADLANALCDYLRDRDYFDKLIKMFISPNTAACDQVRMECGKVLEECTSSANLEYIVNKSYTKKIMIVAMKLNKTPDQQRLSLSLIGNLFKHSNAVSLSLIETDVIDHIILTFKRAPECPDILRHAALALANILLYTCFEGKKKIIQKKIPEWLFFLASQADDVTRYYACIAVCTIVSVKEFEPLVRKSDTMKLVEPFLQVHDPATFARDYHKYAQGNTKEWLERLLPMLQPSRRREARSVAAFHFTLEATIKKEQNKLDVFQEIGAIQALKEVASSPDEVAAKFASEALTVIGEEVPYKLAQQVPGWTCADVQYWVKKIGFEEYVEKFAKQMVDGDLLLQLTENDLKHDVGMISGLHRKRFLRELQTLKVAADYSSVDESNLDNFLMGLSPELSVYTYQMLTNGVNRSLLSSLTDEMMQNACGITNPIHRLKLTQAFETAKHPDDVEVAMLSKQIDVFISYRRSTGNQLASLIKVLLQLRGYRVFIDVDKLYAGKFDSSLLKNIQAAKHFILVLTPNSLDRLLNDDNCEDWVHKELKCAFEHQKNIIPIFDTAFEFPTKEDQIPNDIRMITKYNGVKWVHDYQDACMAKVVRFITGELNRTTPTTKEMPSISRKTTQQR
# notes: near-intact ARM-SAM-SAM-TIR, residues 162-872 (HMD...QQR), N-terminal 6xHis + TEV site, HEK293F expression, mostly 9-mer ring, partly dissociated
# B5: ceTIR-1 TIR domain (residues 709-872), the C. elegans part of CHIMERA (domain or fragment, UniProt Q86DA5-2 709-872, looked up)
# chain: DVFISYRRSTGNQLASLIKVLLQLRGYRVFIDVDKLYAGKFDSSLLKNIQAAKHFILVLTPNSLDRLLNDDNCEDWVHKELKCAFEHQKNIIPIFDTAFEFPTKEDQIPNDIRMITKYNGVKWVHDYQDACMAKVVRFITGELNRTTPTTKEMPSISRKTTQQR
# notes: ceTIR-1 TIR domain, residues 709-872 (709DVF...QQR872); Stood joined on one chain with m7 (together they are CHIMERA); also called C. elegans TIR; source: HEK293F, transfected, purified, as part of the CHIMERA chain
# Assays:
# ceTIR-1 = target: T1, ceTIR-1 (Caenorhabditis elegans, UniProt Q86DA5); test: HPLC NAD+ consumption, dose response; assay type: biochemical
# T1 construct: gene tir-1; near-intact ARM-SAM-SAM-TIR, residues 162-872 (HMD...QQR), N-terminal 6xHis + TEV site, HEK293F expression, mostly 9-mer ring, partly dissociated
# T1 sequence (Q86DA5 216-926): B4 chain
# Description: HPLC NAD+ consumption, dose response on ceTIR-1 | Nicotinamide (NAM) inhibits ceTIR-1 NADase activity
# [1] = target: the molecule itself; test: cryo-EM structure; purified CHIMERA supplemented with 5 mM NAD+; Titan Krios; 136,346 particles, C8 symmetry imposed
# [2] = target: the molecule itself; test: cross-linking; glutaraldehyde cross-linking of ceTIR-1^TIR and ceTIR-1^(TIR L729H)
# [3] = target: the molecule itself; test: SEC; gel filtration of Ni-NTA purified hSARM1 and ceTIR-1, fractions read by anti-FLAG WB; Superdex 200 Increase 10/300, 25 mM phosphate pH 8.5, 120 mM NaCl, 2.5% glycerol, 1 mM DTT
# [4] = substrate: NC(=O)c1ccc[n+]([C@@H]2O[C@H](COP(=O)(O)OP(=O)(O)OC[C@H]3O[C@@H](n4cnc5c(N)ncnc54)[C@H](O)[C@@H]3O)[C@@H](O)[C@H]2O)c1; test: HPLC NAD+ consumption, Michaelis-Menten fit; assay type: biochemical, Caenorhabditis elegans; conditions: […] min, […] enzyme, pH […], unit appears as mM, a character error for µM (b50 gives about […] for hSARM1 and […] higher for ceTIR-1)
# [5] = target: T2, hSARM1 ARM and SAM domains (residues 26-562), the human part of CHIMERA (human, UniProt Q6SZW1 26-562); test: cryo-EM structure; purified CHIMERA supplemented with 5 mM NAD+; Titan Krios; 136,346 particles, C8 symmetry imposed; conditions: both partners purified
# T2 construct: human SARM1 ARM and SAM domains, residues 26-562 (26ERL...DTP562); Stood joined on one chain with m8 (together they are CHIMERA); written apart only for the contact of the human ARM with the C. elegans TIR in the structure; also called human ARM and SAM domains; source: HEK293F, transfected, purified, as part of the CHIMERA chain
# T2 sequence (looked up): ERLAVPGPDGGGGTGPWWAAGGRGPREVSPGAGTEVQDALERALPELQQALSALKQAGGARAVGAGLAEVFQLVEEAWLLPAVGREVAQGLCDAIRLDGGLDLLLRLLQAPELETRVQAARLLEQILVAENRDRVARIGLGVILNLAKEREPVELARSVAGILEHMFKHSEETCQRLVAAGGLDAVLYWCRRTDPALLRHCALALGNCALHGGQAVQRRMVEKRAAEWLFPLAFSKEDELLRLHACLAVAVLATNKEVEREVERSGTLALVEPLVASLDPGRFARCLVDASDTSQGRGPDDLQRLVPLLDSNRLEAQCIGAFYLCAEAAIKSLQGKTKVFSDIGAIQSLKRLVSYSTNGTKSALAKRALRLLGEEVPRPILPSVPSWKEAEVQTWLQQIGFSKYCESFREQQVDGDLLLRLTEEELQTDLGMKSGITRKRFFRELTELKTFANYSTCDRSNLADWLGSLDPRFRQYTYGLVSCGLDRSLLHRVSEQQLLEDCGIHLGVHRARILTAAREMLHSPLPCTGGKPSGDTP
molecule,measurement,setting,value
NC(=O)c1cccnc1 [NAM],IC50,ceTIR-1,910 µM
B1,stoichiometry N,[1],8
B2,stoichiometry N,[2],2
B3,binding result,[3],binds
B4,Km,[4],0.25 mM
B5,binding result,[5],binds
